Our source for the interaction score values is paper PMC10397247.

In test [1] the target is T1, O6-bP.
T1 chain: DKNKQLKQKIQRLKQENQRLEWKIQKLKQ
Description: two-hybrid library CCNG1.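 Note: natural log of median RNA to DNA barcode read ratio; higher means stronger binding.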

In test [2] the target is T2, O5-bP.
T2 chain: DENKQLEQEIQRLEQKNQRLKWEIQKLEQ
The test is described as follows: two-hybrid library CCNG1.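 Note: natural log of median RNA to DNA barcode read ratio; higher means stronger binding.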

In test [3] the target is T3, O3-bP.
T3 chain: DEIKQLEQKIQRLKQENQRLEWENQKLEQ
The test is described as follows: two-hybrid library CCNG1.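 Note: natural log of median RNA to DNA barcode read ratio; higher means stronger binding.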

Test [4] deals with T4, O8-bP.
T4 chain: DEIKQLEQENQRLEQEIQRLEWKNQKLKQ
Description: two-hybrid library CCNG1.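 Note: natural log of median RNA to DNA barcode read ratio; higher means stronger binding.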

Test [5] deals with T5, O2-bP.
T5 chain: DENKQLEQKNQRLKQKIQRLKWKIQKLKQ
Description: two-hybrid library CCNG1.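 Note: natural log of median RNA to DNA barcode read ratio; higher means stronger binding.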

Test [6] deals with T6, O4-bP.
T6 chain: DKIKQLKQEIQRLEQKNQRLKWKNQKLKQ
The test is described as follows: two-hybrid library CCNG1.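 Note: natural log of median RNA to DNA barcode read ratio; higher means stronger binding.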

Test [7] addresses T7, O7-bP.
T7 chain: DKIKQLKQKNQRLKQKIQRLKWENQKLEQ
The test is described as follows: two-hybrid library CCNG1.

In test [8] the target is T8, O9-bP.
T8 chain: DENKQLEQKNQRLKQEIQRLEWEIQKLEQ
The test is described as follows: two-hybrid library CCNG1.

The target in test [9] is T9, APC4100-AA.
T9 chain: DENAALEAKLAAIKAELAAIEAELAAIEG
The test is described as follows: two-hybrid library CCmax. To be noted: mean of both orientations.

Test [10] addresses T10, APC2811-AA.
T10 chain: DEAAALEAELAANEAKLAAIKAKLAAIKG
The test is described as follows: two-hybrid library CCmax. To be noted: mean of both orientations.

Test [11] deals with T11, APC8516-AA.
T11 chain: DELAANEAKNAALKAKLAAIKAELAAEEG
Description: two-hybrid library CCmax. Conditions: mean of both orientations.

For test [12], the target named is T12, APC8401-AA.
T12 chain: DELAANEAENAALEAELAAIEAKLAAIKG
The test is described as follows: two-hybrid library CCmax. Conditions: mean of both orientations.

The target in test [13] is T13, APC2543-AA.
T13 chain: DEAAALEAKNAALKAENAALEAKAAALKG
Description: two-hybrid library CCmax.

Test [14] addresses T14, APC3881-AA.
T14 chain: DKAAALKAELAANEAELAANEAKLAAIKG
Description: two-hybrid library CCmax. To be noted: mean of both orientations.

Test [15] has as its target T15, APC7524-AA.
T15 chain: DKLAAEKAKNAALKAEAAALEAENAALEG
The test is described as follows: two-hybrid library CCmax. To be noted: mean of both orientations.

Test [16] concerns the target T16, APC2556-AA.
T16 chain: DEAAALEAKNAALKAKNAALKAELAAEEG
Description: two-hybrid library CCmax. Conditions: mean of both orientations.

Test [17] concerns the target T17, APC3265-AA.
T17 chain: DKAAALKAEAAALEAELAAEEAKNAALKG
Description: two-hybrid library CCmax. Conditions: mean of both orientations.

The target in test [18] is T18, APC9291-AA.
T18 chain: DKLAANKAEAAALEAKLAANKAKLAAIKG
Description: two-hybrid library CCmax. To be noted: mean of both orientations.

Test [19] has as its target T19, APC9182-AA.
T19 chain: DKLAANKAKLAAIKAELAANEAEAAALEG
The test is described as follows: two-hybrid library CCmax. To be noted: mean of both orientations.

Test [20] deals with T20, APC3323-AA.
T20 chain: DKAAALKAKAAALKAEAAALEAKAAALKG
The test is described as follows: two-hybrid library CCmax. To be noted: mean of both orientations.

Test [21] deals with T21, APC4336-AA.
T21 chain: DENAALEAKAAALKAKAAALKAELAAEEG
Description: two-hybrid library CCmax. Conditions: mean of both orientations.

The target of test [22] is T22, APC5009-AA.
T22 chain: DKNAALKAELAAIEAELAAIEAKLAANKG
The test is described as follows: two-hybrid library CCmax. Conditions: mean of both orientations.

Test [23] concerns the target T23, APC6088-AA.
T23 chain: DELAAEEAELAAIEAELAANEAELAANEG
The test is described as follows: two-hybrid library CCmax. Conditions: mean of both orientations.

The target of test [24] is T24, APC2981-AA.
T24 chain: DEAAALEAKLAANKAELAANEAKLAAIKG
The test is described as follows: two-hybrid library CCmax. To be noted: mean of both orientations.

Test [25] deals with T25, APC9806-AA.
T25 chain: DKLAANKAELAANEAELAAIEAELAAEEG
The test is described as follows: two-hybrid library CCmax. To be noted: mean of both orientations.

Test [26] has as its target T26, APC542-AA.
T26 chain: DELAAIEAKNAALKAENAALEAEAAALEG
The test is described as follows: two-hybrid library CCmax. To be noted: mean of both orientations.

For test [27], the target named is T27, APC3354-AA.
T27 chain: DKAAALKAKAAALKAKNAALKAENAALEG
The test is described as follows: two-hybrid library CCmax. To be noted: mean of both orientations.

Test [28] has as its target T28, APC9141-AA.
T28 chain: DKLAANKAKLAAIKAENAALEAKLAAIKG
Description: two-hybrid library CCmax. Conditions: mean of both orientations.

The target of test [29] is T29, APC2724-AA.
T29 chain: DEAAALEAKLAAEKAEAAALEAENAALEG
The test is described as follows: two-hybrid library CCmax.

Test [30] concerns the target T30, APC5531-AA.
T30 chain: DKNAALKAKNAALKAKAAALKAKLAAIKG
The test is described as follows: two-hybrid library CCmax. Conditions: mean of both orientations.

As to DENKQLEQKNQRLKQKIQRLKWKIQKLKQ [O2-bP], the interaction score in test [1] is -0.766; in [2], -0.804; in test [3], -0.635; in test [4], -1.21; in test [5], -1.2; in test [6] it was -0.811. Also, the interaction score is -0.723 in test [7] and -1.4 in test [8].

On to DEAAALEAKNAALKAENAALEAKAAALKG [APC2543-AA], for which the interaction score is -1.65 in [9]; -1.54 in [10]; -1.7 in test [11]; -1.23 in test [12]; -1.71 in test [13]; -1.22 in test [14]. Also, the interaction score in [15] is -1.63; in test [16], -1.67; in test [17], -1.58; in test [18] it was -1.67; in [19] it was -1.84; in test [20], -1.36. In addition, the interaction score was -1.73 in test [21]; -1.04 in test [22]; -1.87 in test [23]; -1.4 in test [24]; -1.56 in test [25]; -1.65 in test [26]. Also, the interaction score in test [27] is -1.72; in [28], -1.6; in [29], -1.16; in test [30], -1.8.
